Measured values published in the RNAGym collection of RNA variant scans (doi:10.7554/elife.80360).

B1: Twister Ribozyme (parent)
chain: AACACUGCCAAUGCCGGUCCCAAGCCCGGAUAAAAGUGGAGGGGGCGG

Variants of: B1
Test: self-cleavage, relative activity (ratio to wild type); higher = more cleavage; co-transcriptional

Going from C5U G47C to C5U G47A, the self-cleavage rises from 0.315 to 0.727.

Compared with C5U G47U, U6A C25G is lower in self-cleavage: 0.691 for the first, 0.121 for the second.

First: U6A C25U
Second: U6A C25A
The self-cleavage of the first is higher: 0.718 for the first, 0.0712 for the second.

First: C5U C9U
Second: C5U C9A
The self-cleavage of the first is lower: 0.337 for the first, 0.349 for the second.

Going from C5U G29U to C5U G29C, the self-cleavage falls from 0.631 to 0.454.

First: C5G G28A
Second: C5U C27A
The self-cleavage of the first is higher: 0.354 for the first, 0.21 for the second.

First: C5U C27G
Second: U6C A22G
The self-cleavage of the first is lower: 0.0666 for the first, 0.0819 for the second.

First: U6C A22C
Second: U6C A33G
The self-cleavage of the first is higher: 0.691 for the first, 0.429 for the second.

Compared with U6A G47C, U6A G47A is higher in self-cleavage: 0.296 for the first, 0.862 for the second.

Going from U6A G47U to U6A G36C, the self-cleavage falls from 0.441 to 0.136.

First: U6A G36A
Second: U6A G29C
The self-cleavage of the first is lower: 0.168 for the first, 0.335 for the second.

Going from C5G G36U to U6A C26U, the self-cleavage falls from 0.724 to 0.237.

Going from U6A A30C to U6A A30G, the self-cleavage rises from 0.428 to 0.884.

Compared with U6C A30C, U6C A30G is higher in self-cleavage: 0.0653 for the first, 0.477 for the second.

First: C5G G17C
Second: C5G G17U
The self-cleavage of the first is lower: 0.0444 for the first, 0.0612 for the second.

First: C5U G45C
Second: C5U G45U
The self-cleavage of the first is lower: 0.239 for the first, 0.423 for the second.

Going from C5U C46A to U6A G24A, the self-cleavage falls from 0.764 to 0.116.

Compared with U6A U18C, U6A C15G is lower in self-cleavage: 0.208 for the first, 0.0866 for the second.

First: U6A C15A
Second: U6A G45C
The self-cleavage of the first is higher: 0.358 for the first, 0.254 for the second.

Compared with U6A G45A, U6A G16A is lower in self-cleavage: 0.911 for the first, 0.604 for the second.

First: U6A G16U
Second: U6A G16C
The self-cleavage of the first is higher: 0.43 for the first, 0.135 for the second.

First: U6A G17U
Second: C5U G41U
The self-cleavage of the first is lower: 0.101 for the first, 0.221 for the second.

First: C5U G41C
Second: C5G U12G
The self-cleavage of the first is lower: 0.137 for the first, 0.768 for the second.

First: C5U G16U
Second: C5G U6C
The self-cleavage of the first is higher: 0.459 for the first, 0.16 for the second.

Going from C5G G48C to C5G G48A, the self-cleavage falls from 0.77 to 0.67.

Going from C5U C20A to C5U C20U, the self-cleavage rises from 0.105 to 0.816.

Going from C5U G7U to C5U G7A, the self-cleavage rises from 0.0676 to 0.147.

First: C5U G7C
Second: C5U U31C
The self-cleavage of the first is lower: 0.0595 for the first, 0.804 for the second.

Going from C5U U31A to C5U U31G, the self-cleavage rises from 0.577 to 0.65.

First: U6A A10C
Second: U6C A32U
The self-cleavage of the first is higher: 1.19 for the first, 0.488 for the second.

Going from U6C A32C to C5U C8U, the self-cleavage rises from 0.349 to 0.398.

Going from C5U C21G to C5G G47U, the self-cleavage rises from 0.0614 to 0.521.

Going from C5G G47C to U6A C8G, the self-cleavage falls from 0.269 to 0.106.

Compared with C5U G39C, U6A U12C is higher in self-cleavage: 0.171 for the first, 1.11 for the second.

Going from U6A U12G to U6A A34G, the self-cleavage falls from 0.903 to 0.731.

Compared with U6A A34C, C5U C19U is lower in self-cleavage: 0.859 for the first, 0.819 for the second.

Going from C5U C19A to C5U G28A, the self-cleavage rises from 0.145 to 0.572.

Compared with U6A G28U, U6C A34C is lower in self-cleavage: 0.604 for the first, 0.18 for the second.

First: C5U A11G
Second: U6A G13U
The self-cleavage of the first is higher: 0.77 for the first, 0.129 for the second.

Compared with U6A A40G, U6A A40C is lower in self-cleavage: 0.178 for the first, 0.15 for the second.

First: U6A A35G
Second: U6A A35U
The self-cleavage of the first is lower: 0.807 for the first, 0.992 for the second.

First: C5U C14A
Second: C5U C14G
The self-cleavage of the first is higher: 0.673 for the first, 0.0879 for the second.

Going from C5U C14U to U6A A11C, the self-cleavage falls from 0.68 to 0.61.

Compared with U6A A11G, C5U U18A is lower in self-cleavage: 0.897 for the first, 0.186 for the second.

First: C5U U18G
Second: C5U A35G
The self-cleavage of the first is lower: 0.066 for the first, 0.435 for the second.

First: C5U C25U
Second: C5U C25G
The self-cleavage of the first is higher: 0.507 for the first, 0.149 for the second.

First: U6A C19A
Second: U6A C19G
The self-cleavage of the first is higher: 0.0793 for the first, 0.0747 for the second.

Going from U6A C19U to C5G G41U, the self-cleavage falls from 0.539 to 0.154.

Going from C5G G41C to U6A C14U, the self-cleavage rises from 0.114 to 0.795.

Going from U6A C14A to C5U G43U, the self-cleavage falls from 0.866 to 0.2.

First: C5U G43C
Second: C5G G24A
The self-cleavage of the first is higher: 0.126 for the first, 0.0701 for the second.

First: C5U G38C
Second: C5U G38A
The self-cleavage of the first is lower: 0.581 for the first, 0.695 for the second.

Going from C5U G38U to C5U G36C, the self-cleavage rises from 0.503 to 0.785.

First: C5U G36A
Second: C5U G17A
The self-cleavage of the first is higher: 0.852 for the first, 0.237 for the second.

Going from U6A C21G to U6A C21A, the self-cleavage rises from 0 to 0.107.

Going from U6A C21U to U6A G7A, the self-cleavage rises from 0.0948 to 0.224.

First: U6A G7U
Second: C5U A34C
The self-cleavage of the first is lower: 0.101 for the first, 0.166 for the second.

Going from C5G G44U to C5G G44A, the self-cleavage falls from 0.646 to 0.642.

First: C5G G44C
Second: U6C A23C
The self-cleavage of the first is higher: 0.678 for the first, 0.0308 for the second.

First: U6C A23G
Second: C5U U6C
The self-cleavage of the first is lower: 0.0715 for the first, 0.691 for the second.

Going from U6A A33U to U6A A33C, the self-cleavage rises from 0.828 to 0.949.

Going from U6A A22G to U6A C20U, the self-cleavage rises from 0.0598 to 0.82.

First: C5U A32U
Second: C5U A32C
The self-cleavage of the first is lower: 0.812 for the first, 0.887 for the second.

Compared with U6A G48C, C5G G42A is lower in self-cleavage: 0.84 for the first, 0.108 for the second.

Compared with C5G G42U, C5G G42C is higher in self-cleavage: 0.0923 for the first, 0.226 for the second.

First: C5G G39A
Second: C5U G24U
The self-cleavage of the first is higher: 0.197 for the first, 0.0614 for the second.

Going from U6A A32C to C5G U37G, the self-cleavage falls from 0.753 to 0.519.

Going from C5G U37C to U6A U37A, the self-cleavage rises from 0.14 to 0.142.

Going from U6C A10G to U6A G43C, the self-cleavage falls from 0.809 to 0.172.

Going from U6A G43U to U6A G42A, the self-cleavage falls from 0.245 to 0.198.

Compared with U6A G42U, C5U A40C is higher in self-cleavage: 0.163 for the first, 0.171 for the second.

First: C5U A40G
Second: C5U G48U
The self-cleavage of the first is lower: 0.133 for the first, 0.82 for the second.

Going from C5U G48A to C5U G44A, the self-cleavage rises from 0.639 to 0.748.

First: C5U G44U
Second: C5G G38C
The self-cleavage of the first is higher: 0.816 for the first, 0.219 for the second.

Compared with C5G G38U, C5U G13A is higher in self-cleavage: 0.165 for the first, 0.417 for the second.

Compared with C5U G13U, C5U A33C is higher in self-cleavage: 0.157 for the first, 0.652 for the second.

Compared with C5U A33G, C5U A33U is higher in self-cleavage: 0.631 for the first, 0.714 for the second.

Going from C5U A30U to C5U A30G, the self-cleavage rises from 0.752 to 0.784.

Going from U6A U31A to U6A U31C, the self-cleavage rises from 0.717 to 1.07.

Compared with U6A U31G, C5U A22G is lower in self-cleavage: 1.01 for the first, 0.113 for the second.

First: U6A C9U
Second: U6A C9A
The self-cleavage of the first is higher: 0.223 for the first, 0.153 for the second.

Going from C5U U12G to C5U U12C, the self-cleavage rises from 0.763 to 0.769.

Going from U6A G39U to C5G G45A, the self-cleavage rises from 0.125 to 0.475.

Variant C5G G45U has a self-cleavage of 0.369.
